Data published in article PMC8342540, “The middle lipin domain adopts a membrane-binding dimeric protein fold” (Nature Communications, 2021).

Experiments:
[1] = target: the molecule itself; experiment: crystal structure; mouse lipin 2 M-Lip^xtal, 0.2 M calcium acetate, 20% PEG 3350, hanging drop, RT
[2] = target: the molecule itself; experiment: SEC-MALS; 1.6 mg injected onto Superdex 200 Increase 10/300, flow 0.35 ml/min
[3] = target: the molecule itself; experiment: SEC; Superdex 200 10/300 in 20 mM Tris pH 8.0, 150 mM NaCl, 10 mM 2-mercaptoethanol; elution compared with MW standards

B1: mouse lipin 2 M-Lip^xtal domain (residues 459–549) (domain or fragment, UniProt Q99PI5 459-549, looked up)
chain: SAMDLPDVTLSLCGGLSENGEISKEKFMEHIITYHEFAENPGLIDNPNLVIRIYNRYYNWALAAPMILSLQVFQKSLPKATVESWVKDKMP
notes: mouse lipin 2, M-Lip^xtal domain, residues 459–549; Cloned into pET28b with NdeI and NotI; the purification section names pET28a; source: E. coli BL21 (DE3) RIPL, purified (Ni-NTA, SEC)
- binding result [1]: binds

B2: mouse lipin 1 M-Lip^xtal domain (residues 458–548), as used in SEC-MALS (domain or fragment, UniProt Q91ZP3-2 458-548, looked up)
chain: SLRDLPSIAISLCGGLSDHREITKDAFLEQAVSYQQFADNPAIIDDPNLVVKVGNKYYNWTTAAPLLLAMQAFQKPLPKATVESIMRDKMP
notes: mouse lipin 1, M-Lip^xtal domain, residues 458–548; numbers count on: mouse lipin 1 alpha (891 residues); The stated dimer mass of 26 kDa (13 kDa a chain) would fit the 91 residues plus a vector-encoded His tag (surmise); source: E. coli BL21 (DE3) RIPL, purified (Ni-NTA, SEC)
- stoichiometry N [2]: 2

B3: full-length mouse lipin 1 alpha (residues 1–891), from Sf9 cells (natural protein, UniProt Q91ZP3-2 1-891, looked up)
chain: MNYVGQLAGQVFVTVKELYKGLNPATLSGCIDIIVIRQPNGSLQCSPFHVRFGKMGVLRSREKVVDIEINGESVDLHMKLGDNGEAFFVQETDNDQEIIPMYLATSPILSEGAARMESQLKRNSVDRIRCLDPTTAAQGLPPSDTPSTGSLGKKRRKRRRKAQLDNLKRDDNVNSSEDEDMFPIEMSSDEDTAPMDGSRTLPNDVPPFQDDIPKENFPSISTHPQSASYPSSDREWSPSPSPSGSRPSTPKSDSELVSKSADRLTPKNNLEMLWLWGELPQAAKSSSPHKMKESSPLGSRKTPDKMNFQAIHSESSDTFSDQSPTMARGLLIHQSKAQTEMQFVNEEDLESLGAAAPPSPVAEELKAPYPNTAQSSSKTDSPSRKKDKRSRHLGADGVYLDDLTDMDPEVAALYFPKNGDPGGLPKQASDNGARSANQSPQSVGGSGIDSGVESTSDSLRDLPSIAISLCGGLSDHREITKDAFLEQAVSYQQFADNPAIIDDPNLVVKVGNKYYNWTTAAPLLLAMQAFQKPLPKATVESIMRDKMPKKGGRWWFSWRGRNATIKEESKPEQCLTGKGHNTGEQPAQLGLATRIKHESSSSDEEHAAAKPSGSSHLSLLSNVSYKKTLRLTSEQLKSLKLKNGPNDVVFSVTTQYQGTCRCEGTIYLWNWDDKVIISDIDGTITRSDTLGHILPTLGKDWTHQGIAKLYHKVSQNGYKFLYCSARAIGMADMTRGYLHWVNERGTVLPQGPLLLSPSSLFSALHREVIEKKPEKFKVQCLTDIKNLFFPNTEPFYAAFGNRPADVYSYKQVGVSLNRIFTVNPKGELVQEHAKTNISSYVRLCEVVDHVFPLLKRSHSCDFPCSDTFSNFTFWREPLPPFENQDMHSASA
notes: mouse lipin 1 alpha, full length, residues 1–891 (891 residues printed); Vector YM-Bac3, a modified pFastBac Htb; also called wild-type lipin 1; recombinant lipin 1; source: Sf9, baculovirus, purified (Ni-NTA, Streptactin-XT, SEC)
- binding result [3]: binds
